The Kd is the free concentration of one partner at which half of the binding sites on the other are occupied at equilibrium, for simple one-to-one binding. Higher therefore signals lower affinity.

This test deals with computationally redesigned, water-soluble variant of the human μ-opioid receptor (MOR) (human) (UniProt P35372). The experiment in a line: MoS2 field effect transistor biosensor.

Regarding “[D-Ala^2, N-MePhe^4, Gly-ol]-enkephalin (peptide)”, the Kd came to 0.087 µM.
